Measured values published in patent US6875581.

Biological target: calcineurin (recombinant or partly purified, phosphoserine phosphatase assay)
Test: cell-based or functional assay

Substance	Percentage of FK506 inhibitable RII-phosphopeptide activity after 20 min compared with the activity at 0 min; constant activity (1.67 U)	Percentage of FK506 inhibitable RII-phosphopeptide activity after 20 min compared with the activity at 0 min; constant protein (3 ug)	protection of calcineurin after calcium induced redox inactivation
purified human erythrocyte CuZnSOD (Sigma Aldrich) (from UniProt P00441 2-154) (enzyme)	57%	57%	50 to 100%
recombinant human CuZnSOD mutation A4V (from UniProt P00441 2-154) (enzyme)	8%	22%	
recombinant human CuZnSOD mutation D90A (from UniProt P00441 2-154) (enzyme)	32%	42%	
recombinant human CuZnSOD mutation G93A (from UniProt P00441 2-154) (enzyme)	21%	16%	
recombinant human wild-type CuZnSOD (from UniProt P00441 2-154) (enzyme)	56%	70%	50 to 100%
